We go through one molecule from PMC3105431.

One series has as its target U2AF65;U2AF35 (human;human, UniProt P26368;Q01081 1-475;1-240, |). Briefly: EMSA. (In general: A gel shift assay detects complexes by their altered migration in electrophoresis.)
The target of another series is U2AF65 (human, UniProt P26368 1-475). Briefly: EMSA.
Chain of U2AF65 (P26368 whole entry, one chain of several): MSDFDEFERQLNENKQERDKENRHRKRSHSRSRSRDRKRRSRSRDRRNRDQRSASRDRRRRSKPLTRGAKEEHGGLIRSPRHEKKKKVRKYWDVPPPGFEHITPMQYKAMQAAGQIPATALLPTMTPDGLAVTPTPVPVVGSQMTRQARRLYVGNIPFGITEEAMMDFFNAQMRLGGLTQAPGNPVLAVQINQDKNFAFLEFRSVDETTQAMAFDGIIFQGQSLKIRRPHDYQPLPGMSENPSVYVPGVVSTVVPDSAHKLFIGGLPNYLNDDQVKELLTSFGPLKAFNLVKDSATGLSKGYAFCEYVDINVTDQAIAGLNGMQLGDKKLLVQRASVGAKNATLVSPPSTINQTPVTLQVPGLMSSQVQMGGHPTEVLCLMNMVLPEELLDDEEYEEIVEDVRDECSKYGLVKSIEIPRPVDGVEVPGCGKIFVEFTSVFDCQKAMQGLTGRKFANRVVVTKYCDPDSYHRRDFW

Chain of U2AF65;U2AF35 (P26368 whole entry, chain 1 of 2): as the sequence (P26368 whole entry, one chain of several) above
Chain of U2AF65;U2AF35 (Q01081 whole entry, chain 2 of 2): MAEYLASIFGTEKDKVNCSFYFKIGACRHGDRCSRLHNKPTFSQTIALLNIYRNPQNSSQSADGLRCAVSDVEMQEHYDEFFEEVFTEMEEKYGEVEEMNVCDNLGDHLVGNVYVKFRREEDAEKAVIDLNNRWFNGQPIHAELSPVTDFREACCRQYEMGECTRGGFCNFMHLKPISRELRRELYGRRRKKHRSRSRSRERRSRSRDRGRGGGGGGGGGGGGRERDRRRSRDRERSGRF

Take GGGAGACAGGCUUACGCAUUCGUCUAUCUUUCGCAUAGUUUGGUCCA (ssRNA) [FECH mutant (PT, E+1 G>U)]: the binding result with U2AF65;U2AF35 and in the series with U2AF65 was “no binding” each time.
